Source: paper PMC3821638, “Molecular Cloning and Characterization of the Calcineurin Subunit A from Plutella xylostella” (International Journal of Molecular Sciences, 2013)

Test system: T1, O=[N+]([O-])c1ccc(OP(=O)(O)O)cc1
T1 construct: catalytic (phosphatase) domain CNA1–341 (PxCNα), His-tagged, expressed in E. coli
Assay: Michaelis-Menten kinetics of purified rPxCNα (Km)
Type: biochemical, Plutella xylostella
Details: Mn2+ ([…] MnCl2 in assay buffer)

Sequence of Calcineurin subunit A (PxCNA), catalytic domain PxCNα (Plutella xylostella) (chain, as listed by the source): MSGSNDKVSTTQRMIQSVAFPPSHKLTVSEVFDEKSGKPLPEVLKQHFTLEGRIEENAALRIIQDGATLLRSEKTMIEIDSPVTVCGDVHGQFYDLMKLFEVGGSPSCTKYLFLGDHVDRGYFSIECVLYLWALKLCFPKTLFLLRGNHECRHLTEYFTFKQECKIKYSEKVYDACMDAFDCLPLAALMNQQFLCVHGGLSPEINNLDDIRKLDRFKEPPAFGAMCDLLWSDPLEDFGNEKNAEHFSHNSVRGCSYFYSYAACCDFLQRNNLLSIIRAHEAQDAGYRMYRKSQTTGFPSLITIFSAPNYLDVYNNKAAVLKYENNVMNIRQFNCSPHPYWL

## Calcineurin subunit A (PxCNA), catalytic domain PxCNα (Plutella xylostella)
  Km: 4.6 mM
